{
  "source": "patent US20110172168A1",
  "about": "(MEDIGENE, published 2011)",
  "data": [
    {"biological_target": "T1, CEA-derived … (SEQ ID NO: 71)-HLA-A*0201 complex (biotin on the C-terminal biotinylation tag (enzymatic, BirA))", "T1 construct": "also called soluble biotinylated HLA-A2-peptide complex; not shown: C-terminal biotinylation tag that replaces the transmembrane and cytoplasmic domains", "assay": "Biacore SPR, pMHC immobilised", "experimental": "SPR measures changes in refractive index expressed in response units (RU) near a sensor surface within a small flow cell, a principle that can be used to detect receptor ligand interactions and to analyse their affinity and kinetic parameters. The probe flow cells were prepared by immobilising the pMHC complexes in flow cells via biotin-tag binding. The assay was then performed by passing soluble ILT over the surfaces of the different flow cells at a constant flow rate, measuring the SPR response in doing so.", "units": {"Kd": "nM", "koff": "s⁻¹"}, "values": [
      {"binder": "SEQ ID NO 32 (receptor) MAGHLPKPTLWAEPGSVITQGSPVTLRCQGGQETQEYRLYREKKTAPWITRIPQELVKKGQFPIPSITWEHAGRYRCYYGSDTSQWSASSDPLELVVTGVYIKPTLSAQPSPVVNSGGNVTLQCDSQVAFDGFILCKEGEDEHPQCLNSQPHARGSSRAIFSVGPVSPSRRWWYRCYAYVAWAPYEWSLPSDLLELDVDG", "Kd": "≤ 1000", "koff": "≤ 2"},
      {"binder": "SEQ ID NO 34 (receptor) MAGHLPKPTLWAEPGSVITQGSPVTLRCQGGQETQEYRLYREKKTAPWITRIPQELVKKGQFPIPSITWEHAGRYRCYYGSDTSQWSASSDPLELVVTGVYIKPTLSAQPSPVVNSGGNVTLQCDSQVAFDGFILCKEGEDEHPQCLNSQPHARGSSRAIFSVGPVSPSRRWWYRCYAYMNWAPYEWSLPSDLLELDVDG", "Kd": "≤ 1000", "koff": "≤ 2"},
      {"binder": "SEQ ID NO 36 (receptor) MAGHLPKPTLWAEPGSVITQGSPVTLRCQGGQETQEYRLYREKKTAPWITRIPQELVKKGQFPIPSITWEHAGRYRCYYGSDTSQWSASSDPLELVVTGVYIKPTLSAQPSPVVNSGGNVTLQCDSQVAFDGFILCKEGEDEHPQCLNSQPHARGSSRAIFSVGPVSPSRRWWYRCYAYPAWTPYEWSLPSDLLELDVDG", "Kd": "≤ 1000", "koff": "≤ 2"},
      {"binder": "SEQ ID NO 38 (receptor) MAGHLPKPTLWAEPGSVITQGSPVTLRCQGGQETQEYRLYREKKTAPWITRIPQELVKKGQFPIPSITWEHAGRYRCYYGSDTSQWSASSDPLELVVTGVYIKPTLSAQPSPVVNSGGNVTLQCDSQVAFDGFILCKEGEDEHPQCLNSQPHARGSSRAIFSVGPVSPSRRWWYRCYAYMSWAPYEWSLPSDLLELDVDG", "Kd": "≤ 1000", "koff": "≤ 2"},
      {"binder": "SEQ ID NO 40 (receptor) MAGHLPKPTLWAEPGSVITQGSPVTLRCQGGQETQEYRLYREKKTAPWITRIPQELVKKGQFPIPSITWEHAGRYRCYYGSDTSQWSASSDPLELVVTGVYIKPTLSAQPSPVVNSGGNVTLQCDSQVAFDGFILCKEGEDEHPQCLNSQPHARGSSRAIFSVGPVSPSRRWWYRCYAYMSWSPYEWSLPSDLLELDVDG", "Kd": "≤ 1000", "koff": "≤ 2"},
      {"binder": "SEQ ID NO 43 (receptor) MAGHLPKPTLWAEPGSVITMDQPVTLRCQGGQETQEYRLYREKKTAPWITRIPQELVKKGQFPIPSITWEHAGRYRCYYGSDTSQWSASSDPLELVVTGVYIKPTLSAQPSPVVNSGGNVTLQCDSQVAFDGFILCKEGEDEHPQCLNSQPHARGSSRAIFSVGPVSPSRRWWYRCYAYMSYSPYEWSLPSDLLELDVDG", "Kd": "≤ 1000", "koff": "≤ 2"},
      {"binder": "SEQ ID NO 44 (receptor) MAGHLPKPTLWAEPGSVITMDQPVTLRCQGGQETQEYRLYREKKTAPWITRIPQELVKKGQFPIPSITWEHAGRYRCYYGSDTSQWSASSDPLELVVTGVYIKPTLSAQPSPVVNSGGNVTLQCDSQVAFDGFILCKEGEDEHPQCLNSQPHARGSSRAIFSVGPVSPSRRWWYRCYAYPAYTPYEWSLPSDLLELDVDG", "Kd": "≤ 1000", "koff": "≤ 2"},
      {"binder": "SEQ ID NO 45 (receptor) MAGHLPKPTLWAEPGSVITMDQPVTLRCQGGQETQEYRLYREKKTAPWITRIPQELVKKGQFPIPSITWEHAGRYRCYYGSDTSQWSASSDPLELVVTGVYIKPTLSAQPSPVVNSGGNVTLQCDSQVAFDGFILCKEGEDEHPQCLNSQPHARGSSRAIFSVGPVSPSRRWWYRCYAYMSNSPYEWSLPSDLLELDVDG", "Kd": "≤ 1000", "koff": "≤ 2"},
      {"binder": "SEQ ID NO 46 (receptor) MAGHLPKPTLWAEPGSVITMDQPVTLRCQGGQETQEYRLYREKKTAPWITRIPQELVKKGQFPIPSITWEHAGRYRCYYGSDTSQWSASSDPLELVVTGVYIKPTLSAQPSPVVNSGGNVTLQCDSQVAFDGFILCKEGEDEHPQCLNSQPHARGSSRAIFSVGPVSPSRRWWYRCYAYDSWSPYEWSLPSDLLELDVDG", "Kd": "≤ 1000", "koff": "≤ 2"},
      {"binder": "SEQ ID NO 47 (receptor) MAGHLPKPTLWAEPGSVITMDQPVTLRCQGGQETQEYRLYREKKTAPWITRIPQELVKKGQFPIPSITWEHAGRYRCYYGSDTSQWSASSDPLELVVTGVYIKPTLSAQPSPVVNSGGNVTLQCDSQVAFDGFILCKEGEDEHPQCLNSQPHARGSSRAIFSVGPVSPSRRWWYRCYAYMSNAPYEWSLPSDLLELDVDG", "Kd": "≤ 1000", "koff": "≤ 2"},
      {"binder": "SEQ ID NO 48 (receptor) MAGHLPKPTLWAEPGSVITMDQPVTLRCQGGQETQEYRLYREKKTAPWITRIPQELVKKGQFPIPSITWEHAGRYRCYYGSDTSQWSASSDPLELVVTGVYIKPTLSAQPSPVVNSGGNVTLQCDSQVAFDGFILCKEGEDEHPQCLNSQPHARGSSRAIFSVGPVSPSRRWWYRCYAYDSWAPYEWSLPSDLLELDVDG", "Kd": "≤ 1000", "koff": "≤ 2"},
      {"binder": "SEQ ID NO 51 (receptor) MAGHLPKPTLWAEPGSVITMDQPVTLRCQGGQETQEYRLYREKKTAPWITRIPQELVKKGQFPIPSITWEHAGRYRCYYGSDTSQWSASSDPLELVVTGVYIKPTLSAQPSPVVNSGGNVTLQCDSQVAFDGFILCKEGEDEHPQCLNSQPHARGSSRAIFSVGPVSPSRRWWYRCYAYPIWTPYEWSLGSDLLELDVDG", "Kd": "≤ 1000", "koff": "≤ 2"},
      {"binder": "SEQ ID NO 52 (receptor) MAGHLPKPTLWAEPGSVITMDQPVTLRCQGGQETQEYRLYREKKTAPWITRIPQELVKKGQFPIPSITWEHAGRYRCYYGSDTSQWSASSDPLELVVTGVYIKPTLSAQPSPVVNSGGNVTLQCDSQVAFDGFILCKEGEDEHPQCLNSQPHARGSSRAIFSVGPVSPSRRWWYRCYAYPIWTPYEWSQMSDLLELDVDG", "Kd": "≤ 1000", "koff": "≤ 2"},
      {"binder": "SEQ ID NO 53 (receptor) MAGHLPKPTLWAEPGSVITMDQPVTLRCQGGQETQEYRLYREKKTAPWITRIPQELVKKGQFPIPSITWEHAGRYRCYYGSDTSQWSASSDPLELVVTGVYIKPTLSAQPSPVVNSGGNVTLQCDSQVAFDGFILCKEGEDEHPQCLNSQPHARGSSRAIFSVGPVSPSRRWWYRCYAYPIWTPYEWTRGSDLLELDVDG", "Kd": "≤ 1000", "koff": "≤ 2"},
      {"binder": "SEQ ID NO 54 (receptor) MAGHLPKPTLWAEPGSVITMDQPVTLRCQGGQETQEYRLYREKKTAPWITRIPQELVKKGQFPIPSITWEHAGRYRCYYGSDTSQWSASSDPLELVVTGVYIKPTLSAQPSPVVNSGGNVTLQCDSQVAFDGFILCKEGEDEHPQCLNSQPHARGSSRAIFSVGPVSPSRRWWYRCYAYPIWTPYEWSTSSDLLELDVDG", "Kd": "≤ 1000", "koff": "≤ 2"},
      {"binder": "SEQ ID NO 55 (receptor) MAGHLPKPTLWAEPGSVITMDQPVTLRCQGGQETQEYRLYREKKTAPWITRIPQELVKKGQFPIPSITWEHAGRYRCYYGSDTSQWSASSDPLELVVTGVYIKPTLSAQPSPVVNSGGNVTLQCDSQVAFDGFILCKEGEDEHPQCLNSQPHARGSSRAIFSVGPVSPSRRWWYRCYAYPIWTPYEWSSGSDLLELDVDG", "Kd": "≤ 1000", "koff": "≤ 2"},
      {"binder": "SEQ ID NO 56 (receptor) MAGHLPKPTLWAEPGSVITMDQPVTLRCQGGQETQEYRLYREKKTAPWITRIPQELVKKGQFPIPSITWEHAGRYRCYYGSDTSQWSASSDPLELVVTGVYIKPTLSAQPSPVVNSGGNVTLQCDSQVAFDGFILCKEGEDEHPQCLNSQPHARGSSRAIFSVGPVSPSRRWWYRCYAYPIWTPYEWTLGSDLLELDVDG", "Kd": "≤ 1000", "koff": "≤ 2"},
      {"binder": "SEQ ID NO 57 (receptor) MAGHLPKPTLWAEPGSVITMDQPVTLRCQGGQETQEYRLYREKKTAPWITRIPQELVKKGQFPIPSITWEHAGRYRCYYGSDTSQWSASSDPLELVVTGVYIKPTLSAQPSPVVNSGGNVTLQCDSQVAFDGFILCKEGEDEHPQCLNSQPHARGSSRAIFSVGPVSPSRRWWYRCYAYDSNSPYEWTRGSDLLELDVDG", "Kd": "≤ 1000", "koff": "≤ 2"},
      {"binder": "SEQ ID NO 58 (receptor) MAGHLPKPTLWAEPGSVITMDQPVTLRCQGGQETQEYRLYREKKTAPWITRIPQELVKKGQFPIPSITWEHAGRYRCYYGSDTSQWSASSDPLELVVTGVYIKPTLSAQPSPVVNSGGNVTLQCDSQVAFDGFILCKEGEDEHPQCLNSQPHARGSSRAIFSVGPVSPSRRWWYRCYAYDSNSPYEWSQMSDLLELDVDG", "Kd": "≤ 1000", "koff": "≤ 2"},
      {"binder": "SEQ ID NO 59 (receptor) MAGHLPKPTLWAEPGSVITMDQPVTLRCQGGQETQEYRLYREKKTAPWITRIPQELVKKGQFPIPSITWEHAGRYRCYYGSDTSQWSASSDPLELVVTGVYIKPTLSAQPSPVVNSGGNVTLQCDSQVAFDGFILCKEGEDEHPQCLNSQPHARGSSRAIFSVGPVSPSRRWWYRCYAYDSNSPYEWSSGSDLLELDVDG", "Kd": "≤ 1000", "koff": "≤ 2"},
      {"binder": "soluble truncated variant of the Wild-Type ILT-2 molecule (receptor, also called soluble wild-type ILT-2; soluble two domain form of the wild-type ILT-2) MGHLPKPTLWAEPGSVITQGSPVTLRCQGGQETQEYRLYREKKTAPWITRIPQELVKKGQFPIPSITWEHAGRYRCYYGSDTAGRSESSDPLELVVTGAYIKPTLSAQPSPVVNSGGNVTLQCDSQVAFDGFILCKEGEDEHPQCLNSQPHARGSSRAIFSVGPVSPSRRWWYRCYAYDSNSPYEWSLPSDLLELLVL", "Kd": "~6000", "koff": 2.4},
      {"binder": "SEQ ID NO 68 (receptor) MGHLPKPTLWAEPGSVITMDQPVTLRCQGGQETQEYRLYREKKTAPWITRIPQELVKKGQFPIPSITWEHAGRYRCYYGSDTSQWSASSDPLELVVTGVYIKPTLSAQPSPVVNSGGNVTLQCDSPFIADGFILCKEGEDEHPQCLNSQPHARGSSRAIFSVGPVSPSRRWWYRCYAYMSWSPYEWSLPSDLLELDVDG", "Kd": "≤ 1000", "koff": "≤ 2"}
    ]}
  ]
}
